T1: human beta-Klotho (KLB) (human, UniProt Q86Z14 53-997)
T1 construct: Bought protein; also called human KLB; β-Klotho
T1 sequence (looked up): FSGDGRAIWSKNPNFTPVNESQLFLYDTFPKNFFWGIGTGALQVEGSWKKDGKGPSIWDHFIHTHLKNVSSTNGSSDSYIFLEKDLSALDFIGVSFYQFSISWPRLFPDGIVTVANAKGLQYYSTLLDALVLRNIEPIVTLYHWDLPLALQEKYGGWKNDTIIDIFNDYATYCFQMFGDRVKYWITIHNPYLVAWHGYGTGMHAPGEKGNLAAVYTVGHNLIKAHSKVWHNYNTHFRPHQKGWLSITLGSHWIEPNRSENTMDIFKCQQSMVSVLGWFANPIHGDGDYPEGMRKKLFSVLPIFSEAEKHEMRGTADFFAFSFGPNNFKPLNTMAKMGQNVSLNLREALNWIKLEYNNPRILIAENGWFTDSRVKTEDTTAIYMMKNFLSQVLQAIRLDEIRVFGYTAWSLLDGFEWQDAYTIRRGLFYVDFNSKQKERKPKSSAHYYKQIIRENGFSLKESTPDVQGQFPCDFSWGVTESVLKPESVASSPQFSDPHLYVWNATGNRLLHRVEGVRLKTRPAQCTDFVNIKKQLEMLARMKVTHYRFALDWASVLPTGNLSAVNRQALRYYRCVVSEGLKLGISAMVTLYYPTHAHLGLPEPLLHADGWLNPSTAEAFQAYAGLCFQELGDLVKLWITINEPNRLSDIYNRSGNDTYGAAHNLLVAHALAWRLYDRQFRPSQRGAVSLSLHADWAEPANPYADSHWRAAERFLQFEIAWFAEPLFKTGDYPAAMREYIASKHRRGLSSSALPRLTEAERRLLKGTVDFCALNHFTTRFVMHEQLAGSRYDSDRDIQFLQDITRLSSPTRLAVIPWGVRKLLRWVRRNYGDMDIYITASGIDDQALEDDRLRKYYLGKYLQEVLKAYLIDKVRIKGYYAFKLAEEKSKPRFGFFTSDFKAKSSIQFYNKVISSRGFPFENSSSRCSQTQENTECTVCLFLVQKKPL


How the values were obtained:
[1] = biological target: cell surface receptor composed of FGFR1c and co-receptor beta-Klotho (KLB) (human, UniProt P11362 22-822; Q86Z14 1-1044); assay: cell-based or functional assay; on Mean E max, Luciferase reporter gene assay: reference of the scale not given here
[2] = biological target: T1, human beta-Klotho (KLB); assay: BLI off-rate screening (Octet), crude supernatant;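 further: supernatants tested at 25 µg/mL, dissociation from biosensors recorded in D-PBS with 0.1% BSA over 1800 s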

Sequence of cell surface receptor composed of FGFR1c and co-receptor beta-Klotho (KLB) (P11362 22-822, chain 1 of 2): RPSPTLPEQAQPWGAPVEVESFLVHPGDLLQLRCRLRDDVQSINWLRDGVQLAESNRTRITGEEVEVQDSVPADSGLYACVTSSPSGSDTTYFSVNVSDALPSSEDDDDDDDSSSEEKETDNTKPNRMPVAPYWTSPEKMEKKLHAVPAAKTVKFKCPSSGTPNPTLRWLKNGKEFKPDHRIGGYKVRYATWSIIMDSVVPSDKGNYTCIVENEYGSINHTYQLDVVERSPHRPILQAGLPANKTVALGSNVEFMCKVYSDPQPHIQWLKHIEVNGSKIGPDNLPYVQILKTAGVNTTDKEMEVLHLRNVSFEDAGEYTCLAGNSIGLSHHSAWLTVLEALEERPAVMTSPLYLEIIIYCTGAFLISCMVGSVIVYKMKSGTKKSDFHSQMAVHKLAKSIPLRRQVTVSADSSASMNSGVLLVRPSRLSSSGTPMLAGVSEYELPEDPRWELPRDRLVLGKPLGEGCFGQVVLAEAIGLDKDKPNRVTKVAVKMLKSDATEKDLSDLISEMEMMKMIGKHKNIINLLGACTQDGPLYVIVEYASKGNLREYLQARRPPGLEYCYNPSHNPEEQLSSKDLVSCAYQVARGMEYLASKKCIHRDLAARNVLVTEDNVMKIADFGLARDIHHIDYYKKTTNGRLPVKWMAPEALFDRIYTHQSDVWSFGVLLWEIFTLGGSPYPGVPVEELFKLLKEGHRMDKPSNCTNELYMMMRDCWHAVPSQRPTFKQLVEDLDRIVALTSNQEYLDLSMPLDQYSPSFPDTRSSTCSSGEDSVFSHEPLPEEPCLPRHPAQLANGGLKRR
Sequence of cell surface receptor composed of FGFR1c and co-receptor beta-Klotho (KLB) (Q86Z14 whole entry, chain 2 of 2): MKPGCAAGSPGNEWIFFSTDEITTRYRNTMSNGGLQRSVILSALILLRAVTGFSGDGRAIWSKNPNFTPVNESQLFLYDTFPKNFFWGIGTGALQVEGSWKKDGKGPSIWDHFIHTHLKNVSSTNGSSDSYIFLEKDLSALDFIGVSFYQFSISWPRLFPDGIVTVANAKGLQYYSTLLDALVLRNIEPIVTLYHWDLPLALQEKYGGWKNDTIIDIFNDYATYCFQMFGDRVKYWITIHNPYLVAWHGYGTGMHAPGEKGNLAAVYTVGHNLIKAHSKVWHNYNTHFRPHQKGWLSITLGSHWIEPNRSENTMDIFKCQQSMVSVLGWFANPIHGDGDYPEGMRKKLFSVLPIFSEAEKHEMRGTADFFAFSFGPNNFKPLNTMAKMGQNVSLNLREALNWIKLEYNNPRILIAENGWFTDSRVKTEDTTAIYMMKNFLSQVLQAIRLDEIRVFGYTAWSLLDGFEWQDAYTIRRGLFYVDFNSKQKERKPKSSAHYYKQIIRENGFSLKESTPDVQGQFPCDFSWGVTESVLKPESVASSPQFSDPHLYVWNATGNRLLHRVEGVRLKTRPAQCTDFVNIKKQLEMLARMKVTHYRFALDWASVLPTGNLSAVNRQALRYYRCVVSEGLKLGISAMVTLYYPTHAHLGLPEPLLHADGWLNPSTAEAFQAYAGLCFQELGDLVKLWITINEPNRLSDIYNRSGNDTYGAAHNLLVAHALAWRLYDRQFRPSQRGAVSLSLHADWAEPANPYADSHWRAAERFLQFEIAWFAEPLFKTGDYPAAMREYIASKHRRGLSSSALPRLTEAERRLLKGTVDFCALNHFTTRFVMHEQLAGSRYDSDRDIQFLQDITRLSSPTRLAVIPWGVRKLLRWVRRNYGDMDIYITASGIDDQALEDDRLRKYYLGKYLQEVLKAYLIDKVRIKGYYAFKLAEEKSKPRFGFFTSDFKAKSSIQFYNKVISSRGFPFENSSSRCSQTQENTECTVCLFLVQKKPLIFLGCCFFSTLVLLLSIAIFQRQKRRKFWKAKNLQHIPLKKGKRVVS

Row | Mean E max, Luciferase reporter gene assay [1] [%] | Mean EC50, Luciferase reporter gene assay [1] [nM] | koff [2] [s⁻¹] | Binder
1 | 103 | 0.161 | 3.1e-05 | 16H7 light chain variant N93T (antibody, IgG4, V domains shown, IgG4 backbone) VH: not shown VL: SYVLTQPPSVSVAPGQTARITCGGNNIGSESVHWYQQKPGQAPVLVVYDDSDRPSGIPERFSGSNSGNTATLTISRVEAGDEADYYCQVWDGTSDHVVFGGGTKLTVLG
2 | 106 | 0.126 | 4.3e-05 | 16H7 light chain variant S94I (antibody, IgG4, V domains shown, IgG4 backbone) VH: not shown VL: SYVLTQPPSVSVAPGQTARITCGGNNIGSESVHWYQQKPGQAPVLVVYDDSDRPSGIPERFSGSNSGNTATLTISRVEAGDEADYYCQVWDGNIDHVVFGGGTKLTVLG
3 | 104 | 0.123 | 5.7e-05 | 16H7 light chain variant S94R (antibody, IgG4, V domains shown, IgG4 backbone) VH: not shown VL: SYVLTQPPSVSVAPGQTARITCGGNNIGSESVHWYQQKPGQAPVLVVYDDSDRPSGIPERFSGSNSGNTATLTISRVEAGDEADYYCQVWDGNRDHVVFGGGTKLTVLG
4 | 102 | 0.097 | 5e-05 | 16H7 light chain variant S51I (antibody, IgG4, V domains shown, IgG4 backbone) VH: not shown VL: SYVLTQPPSVSVAPGQTARITCGGNNIGSESVHWYQQKPGQAPVLVVYDDIDRPSGIPERFSGSNSGNTATLTISRVEAGDEADYYCQVWDGNSDHVVFGGGTKLTVLG
5 | 99 | 0.124 | 7.6e-05 | 16H7 light chain variant S31N (antibody, IgG4, V domains shown, IgG4 backbone) VH: not shown VL: SYVLTQPPSVSVAPGQTARITCGGNNIGSENVHWYQQKPGQAPVLVVYDDSDRPSGIPERFSGSNSGNTATLTISRVEAGDEADYYCQVWDGNSDHVVFGGGTKLTVLG
6 | 99 | 0.138 | 1e-07 | 16H7 light chain variant S94C (antibody, IgG4, V domains shown, IgG4 backbone) VH: not shown VL: SYVLTQPPSVSVAPGQTARITCGGNNIGSESVHWYQQKPGQAPVLVVYDDSDRPSGIPERFSGSNSGNTATLTISRVEAGDEADYYCQVWDGNCDHVVFGGGTKLTVLG
7 | 98 | 0.103 | 0.00012 | 16H7 light chain variant S51R (antibody, IgG4, V domains shown, IgG4 backbone) VH: not shown VL: SYVLTQPPSVSVAPGQTARITCGGNNIGSESVHWYQQKPGQAPVLVVYDDRDRPSGIPERFSGSNSGNTATLTISRVEAGDEADYYCQVWDGNSDHVVFGGGTKLTVLG
8 | 110 | 0.158 | 4.5e-05 | 16H7 light chain variant S31H (antibody, IgG4, V domains shown, IgG4 backbone) VH: not shown VL: SYVLTQPPSVSVAPGQTARITCGGNNIGSEHVHWYQQKPGQAPVLVVYDDSDRPSGIPERFSGSNSGNTATLTISRVEAGDEADYYCQVWDGNSDHVVFGGGTKLTVLG
9 | 103 | 0.122 | 3.4e-05 | 16H7 light chain variant S94D (antibody, IgG4, V domains shown, IgG4 backbone) VH: not shown VL: SYVLTQPPSVSVAPGQTARITCGGNNIGSESVHWYQQKPGQAPVLVVYDDSDRPSGIPERFSGSNSGNTATLTISRVEAGDEADYYCQVWDGNDDHVVFGGGTKLTVLG
10 | 100 | 0.132 | 1e-07 | 16H7 light chain variant S94F (antibody, IgG4, V domains shown, IgG4 backbone) VH: not shown VL: SYVLTQPPSVSVAPGQTARITCGGNNIGSESVHWYQQKPGQAPVLVVYDDSDRPSGIPERFSGSNSGNTATLTISRVEAGDEADYYCQVWDGNFDHVVFGGGTKLTVLG
11 | 101 | 0.117 | 1.2e-05 | 16H7 light chain variant S94M (antibody, IgG4, V domains shown, IgG4 backbone) VH: not shown VL: SYVLTQPPSVSVAPGQTARITCGGNNIGSESVHWYQQKPGQAPVLVVYDDSDRPSGIPERFSGSNSGNTATLTISRVEAGDEADYYCQVWDGNMDHVVFGGGTKLTVLG
12 | 99 | 0.107 | 4.6e-05 | 16H7 light chain variant S94A (antibody, IgG4, V domains shown, IgG4 backbone) VH: not shown VL: SYVLTQPPSVSVAPGQTARITCGGNNIGSESVHWYQQKPGQAPVLVVYDDSDRPSGIPERFSGSNSGNTATLTISRVEAGDEADYYCQVWDGNADHVVFGGGTKLTVLG
13 | 108 | 0.139 | 4e-05 | 16H7 light chain variant N93V (antibody, IgG4, V domains shown, IgG4 backbone) VH: not shown VL: SYVLTQPPSVSVAPGQTARITCGGNNIGSESVHWYQQKPGQAPVLVVYDDSDRPSGIPERFSGSNSGNTATLTISRVEAGDEADYYCQVWDGVSDHVVFGGGTKLTVLG
14 | 103 | 0.133 | 3.3e-05 | 16H7 light chain variant S94N (antibody, IgG4, V domains shown, IgG4 backbone) VH: not shown VL: SYVLTQPPSVSVAPGQTARITCGGNNIGSESVHWYQQKPGQAPVLVVYDDSDRPSGIPERFSGSNSGNTATLTISRVEAGDEADYYCQVWDGNNDHVVFGGGTKLTVLG
15 | 100 | 0.113 | 5.3e-05 | 16H7 light chain variant S51N (antibody, IgG4, V domains shown, IgG4 backbone) VH: not shown VL: SYVLTQPPSVSVAPGQTARITCGGNNIGSESVHWYQQKPGQAPVLVVYDDNDRPSGIPERFSGSNSGNTATLTISRVEAGDEADYYCQVWDGNSDHVVFGGGTKLTVLG
16 | 108 | 0.119 | 2.8e-05 | 16H7 light chain variant S94V (antibody, IgG4, V domains shown, IgG4 backbone) VH: not shown VL: SYVLTQPPSVSVAPGQTARITCGGNNIGSESVHWYQQKPGQAPVLVVYDDSDRPSGIPERFSGSNSGNTATLTISRVEAGDEADYYCQVWDGNVDHVVFGGGTKLTVLG
17 | 100 | 0.146 | 6.8e-05 | 16H7 light chain variant S94G (antibody, IgG4, V domains shown, IgG4 backbone) VH: not shown VL: SYVLTQPPSVSVAPGQTARITCGGNNIGSESVHWYQQKPGQAPVLVVYDDSDRPSGIPERFSGSNSGNTATLTISRVEAGDEADYYCQVWDGNGDHVVFGGGTKLTVLG
18 | 107 | 0.115 | 6.5e-05 | 16H7 light chain variant S51Q (antibody, IgG4, V domains shown, IgG4 backbone) VH: not shown VL: SYVLTQPPSVSVAPGQTARITCGGNNIGSESVHWYQQKPGQAPVLVVYDDQDRPSGIPERFSGSNSGNTATLTISRVEAGDEADYYCQVWDGNSDHVVFGGGTKLTVLG
19 | 103 | 0.169 | 4.4e-05 | 16H7 light chain variant S94L (antibody, IgG4, V domains shown, IgG4 backbone) VH: not shown VL: SYVLTQPPSVSVAPGQTARITCGGNNIGSESVHWYQQKPGQAPVLVVYDDSDRPSGIPERFSGSNSGNTATLTISRVEAGDEADYYCQVWDGNLDHVVFGGGTKLTVLG
20 | 100 | 0.122 | 1.4e-05 | 16H7 light chain variant S94E (antibody, IgG4, V domains shown, IgG4 backbone) VH: not shown VL: SYVLTQPPSVSVAPGQTARITCGGNNIGSESVHWYQQKPGQAPVLVVYDDSDRPSGIPERFSGSNSGNTATLTISRVEAGDEADYYCQVWDGNEDHVVFGGGTKLTVLG
21 | 109 | 0.116 | 3.2e-05 | 16H7 light chain variant S94T (antibody, IgG4, V domains shown, IgG4 backbone) VH: not shown VL: SYVLTQPPSVSVAPGQTARITCGGNNIGSESVHWYQQKPGQAPVLVVYDDSDRPSGIPERFSGSNSGNTATLTISRVEAGDEADYYCQVWDGNTDHVVFGGGTKLTVLG
22 | 105 | 0.108 | 6.5e-05 | 16H7 light chain variant N93Y (antibody, IgG4, V domains shown, IgG4 backbone) VH: not shown VL: SYVLTQPPSVSVAPGQTARITCGGNNIGSESVHWYQQKPGQAPVLVVYDDSDRPSGIPERFSGSNSGNTATLTISRVEAGDEADYYCQVWDGYSDHVVFGGGTKLTVLG
23 | 97 | 0.099 | 9.6e-05 | 16H7 light chain variant S51L (antibody, IgG4, V domains shown, IgG4 backbone) VH: not shown VL: SYVLTQPPSVSVAPGQTARITCGGNNIGSESVHWYQQKPGQAPVLVVYDDLDRPSGIPERFSGSNSGNTATLTISRVEAGDEADYYCQVWDGNSDHVVFGGGTKLTVLG
24 | 102 | 0.121 | 2.5e-05 | 16H7 light chain variant S51T (antibody, IgG4, V domains shown, IgG4 backbone) VH: not shown VL: SYVLTQPPSVSVAPGQTARITCGGNNIGSESVHWYQQKPGQAPVLVVYDDTDRPSGIPERFSGSNSGNTATLTISRVEAGDEADYYCQVWDGNSDHVVFGGGTKLTVLG

Source: US20220010021A1 (Sanofi, published 2022)
